Experimental data taken from the DeepSol protein solubility set.

Experiment: soluble on expression in E. coli; label from the status in PepcDB or PDB records

Sequence | soluble on expression in E. coli
MGSDKIHHHHHHAQNFSDYFEDKTLRADYIFTGDAKKQEVYLDELSSLPQWAGRKHHLAELPLAGNGEITMKDKATGETIYRTSFSSLFQEWVSEEEASRIKRGFENSFLLPYPKKEAVVTISLKDVYHKVNASLTHEIIPNDILIHQRGTNHITPHRYLLQNGNAADCIDVAIMAEGYTEKEMDIFYKDAQTACDALFSHEPFKKLKDKFNIVAVASPSEDSGVSIPGQGKWKSTAVSSHFNTFYSDRYLTTSRVKSIHNWLAGIPYEHIIILANTDTYGGGGIYNSYTLTTAHHPDFQPVVVHEFGHSFGGLADEYAYTETPSPQYPYEVEPWEPNITTLIDFDSKWKDMIPEGTAIPTPVATENADLYTKVGVYEGAGYTQKGLYRPTTECRMKINEAPAFCPVCQRALERLINFYTAK | not soluble
MGSDKIHHHHHHAQRGKRAMNRIDREVQETVFIPKGTWMAGGTVSYSEHDEGNLNFLVLKNVEGKGYNFGVSPYVGYFFRNNISAGMRFAYHRDYLDLKNFELNLGEDFNISLDNLYYLEHKYEVSGFLRTYMPIGRSKIFGLFNEARLTYGYGTGKNSTGTGATYDGSYQTAQNLQIGIAPGMTAFITDWSAVEVSVGVMGFDFKWIDQKTNQIEEGHQRVSSGNFKINLFSINIGMTFYL | not soluble
MGSDKIHHHHHHASHYLLLGGSGWDKIAIVNKNTKEIEWEHPLEKGWECNSVAVTPDRNILFSYSKGAKLITRDHEEVWNISAPEGCEMQTARVLPNGNYLLAWCGYPATIMEVNAKGEILSKTDFDTHIEQPHAQFRQVNKNKQGNYLVPLFATSEIREISPSGQLLKSVKVDGNPFSVAALDNGNYLVACGDAHCFIELNFETGDIVRKVNENDIEGAQLFFVAQLLPKRDGGLYICNWQGHDGEAAKGHYPQLIEINGAGKMVWDLNDNATFGMISSICPID | not soluble
MGSDKIHHHHHHATPAEIPFDAVLAGQTPMLFKGLVRDWPLVQAGLGSPQAARDYIRAHDRGVPVVGYTGDPAIKGRFFYNDTLTGLNFKAERAPLEAFLGRIEAVEGQENAPAIYIGSTDLDAYFPSLKAENDLGLGPEVYGPQPPMAGIWLGNRTVAAAHYDMSNNIAVCAVGRRRFTLFPPDQVANLYPGPLEPTPGGQVVSMVDFETPDFDRHPRFREALASAQVAEMEPGDVLVYPALWWHQVEALDGFNVLMNYWWNATPAFVDTPMTTLLHGLLSLRDRPDFEKQGWKALFDYYVFGPAERAGAHLPDDARGPLGALDDLKARRLRAWLLDRLNR | not soluble
MGSDKIHHHHHHEHNRSAVTTEGGYYDTEKGFESLINSCYTPLRFWGGKSAAMAFSETGTDILAPGGGCDYPAIVSYQNDFDGTNPISKEYYDRFYKAINFCNTAIYHVKNVPFSDKTLTSKREAEVRFLRAYYYWILVETFGDTYYTDQPSESIVMAPRKTSVAEIYTHIFEDLDFCMDSRLSVAQADGGRVTMWAAKALKARLLLTRASELNDKALYEQAYTLAKEVIDNGPFELSKDFASVFDMENSDGNGNKEVIWYIDYSSTNQLYNQEMDNDIIRSGGNHTHLIFCMKYDDQPGMVRSIEYGRPFNHYMPTRYLLDCYDENIDQRFEVTFRSLWKANGGKTGDNYPYMVQGDTAIWITKDVVPQVKRQWAKGRYQILDRTDIYHEDGSVKSQKQCMPISKFEDPTRATVNEDRGTRDAFIIRVAEMYLIVAEAGAKAGKADALAYMNILRAQRAKAGKEEAMKVAQSDIEDIDFILDERARELVGEQLRWFDLKRMGSEIFIRRIKSGNPDAGKNVKAYHMLRPFPQTLLDAITNKDEFLQNEGYK | not soluble
MGSDKIHHHHHHENLYFQGMIKLIATDIDGTLVKDGSLLIDPEYMSVIDRLIDKGIIFVVCSGRQFSSEFKLFAPIKHKLLYITDGGTVVRTPKEILKTYPMDEDIWKGMCRMVRDELPACDYFAATPDFCFAEDGGSPIFHLLRDSYGFEMREVDDITRLDRNDIIKFTVFHPDKCEELCTPVFIPAWNKKAHLAAAGKEWVDCNAKGVSKWTALSYLIDRFDLLPDEVCCFGDNLNDIEMLQNAGISYAVSNARQEVIAAAKHTCAPYWENGVLSVLKSFL | soluble
MGSDKIHHHHHHESSFLNLSDPNYFTESNFWKDKADAESALAAAYSPIKGAMYGYFGAFDGWLNLNGRGDDIYTIKGEEVPMWNIANFLNSPSTGNDPYGALYSGIQRANIVLRYIDQIPASGITEEDRSMIKGEALFLRGYQYFLLVNNYKEVPLRLIPSNEDETNKAAATEAALWAQVEEDLDNAIKCNLPVERSTAKERITKGAAIAMLGKVYATQHKYPEAKQLLGTLLKAPYSYELMDNFEKNFTNEEEFNKESVFELAYSPDGDYSWSNESGICLGCYIPQFIGPVKSGGWAKLMPNSLIVGEFTKETRPSDADTKFDKRMYASLFFDAANYGDKVPNEKWYGNNYSMDDLWEGNEGKMAGGAPSFNVNGTAGKFLIKKNTAYYVDDKAPDNMGNKEGRSSNLRVMRFAEVLLLYAEACAKTNDPDGANYALKQIRQRAGLTEKTFAQAELMNEIEHQCLLEFFAEGHRFDDLKRWYSPSEIQLIFKANGKQGAENFQEKHLYYPIPTSELNNNTAMEQTSLWK | not soluble
MGSDKIHHHHHHFRSFLMRDREKARKYVLKEIEKFGKRAFTWLFSDVVVEGSENIPKDRNFIVVANHQSLMDIPLILGFVATGAFIAKEELRKIPGVNWYIRYLNGVFLDRKNPRRAVRALREAIEKLKNGVTFIVFPEGTRSPDGKVLSFKKDSLMIAVKTGVPVLPVSIWGTYHLIPKGRWTFTPGKVFLKIHEPVDPKGFSSEEELRKYVEEVVKRGVEELKARWSK | not soluble
MGSDKIHHHHHHGAGISTESGIPDYRSKDVGLYARIAHKPIYFQDYMRSNRCRQRYWSRNFLAWPRFGQAAPNINHYALSKWEASDRFQWLITQNVDGLHLKAGSKMVTELHGSALQVKCTTCDYIESRQTYQDRLDYANPGFKEEHVAPGELAPDGDIILPLGTEKGFQIPECPSCGGLMKTDVTFFGENVNMDKVNFCYEKVNECDGILSLGTSLAVLS | not soluble
MGSDKIHHHHHHGAGVSTGSKLPDFRGKQGVWTLQAEGKHAEGVDFQVARPGVSHKSILALHKAGYIKTIITQNVDGLDRKVGIPVEDLIEVHGNLFLEVCQSCFSEYVREEIVMSVGLCPTGRNCEGNKRTGRSCRGKLRDATLDWDTEISLNHLDRIRKAWKQTSHLLCIGTSLEIIPMGSLPLDAKSKGIKTTTINYQETAHEKIVETAIHADVKLILYSLCNALGVNVDLGDDLPDEVPIPLKIS | not soluble
MGSDKIHHHHHHGCSDDFKSGLRLDGDVWVNSIRLDEYAGTVDYQNKAIVVGVPYDYDITRMVVTEMNLSEGAKASIAIGETIDFSLPVSLTVKNGDVQMSYTITVKRDEAKILTFKLNDTYVGKVDQLSKTISVVVPLTVDITQLKGTFTVTDGATVTPASGSIQDFTNPVTYTATYRSAVTPYVVTVTQGNVIPTAFVGTASSVSLLTSPEEKAAAQWMMDNVSMSEYISFKDVVDGKVDLGKYTAIWWHFHADNGDNPPLPDDAKAAAEKFKVYYQNGGNLLLTRYATFYIANLGIAKDERVPNNSWGGNEDSPEITSAPWSFLITGSESHPLFQDLRWKDGDKSTVYTCDAGYAITNSTAQWHIGTDWGGYDDLNAWRNLTGGIDLAHGGDGAVVIAEFEPRSNSGRTLCIGSGCYDWYGKGVDASADYYHYNVEQMTLNAINYLCK | not soluble
MGSDKIHHHHHHGGEDYVQAEQAPMLKIPEGLKTPPYNKEYDVPALGPKANPALVGKNLDIRPPLQVLPMAEGTHVEEGSDNIKIVVESIDNNVDLKQEIFTNLDDFFAKQAIPIRSRDFDKGSIETDWIESREVLESSLWGSDKEYLLRQRYRFDVETRPHGRTANIVIHLVEHEEFYDGKEQKVMLSGEDKQRYTIDMLNSAIAYMSVKREQTIQANRLKQTLGINVDLITPEEGAAYWSAKAAYKQVWDRLRIVLPEMGFEISDMDSAKGLYFIKFTDNSGFWSSLWNNNQLSLKEGSYRLLLEDGDTPDETKIWLRDAEDQPLSNDVVSKVYESLSSLMKEERKLR | not soluble
MGSDKIHHHHHHINVYFRGPRTHRMPQWVRVVFLQFLPKLVCMKRPKSASERSAVRSGMAQLPGVGQFTLSPSAHHPLCPSADDRTTTIRNTASNETSAYYPLSTDALRAIDAIEYITEHLKRDEQHKSFRDDWKYVAMIIDRL | not soluble
MGSDKIHHHHHHKIEELTAVPLQIGYEKTLHLIFPTEVKYYSIGGDYVIGEKVVNCPGIIRLKAAEENFPGETTLSVVTADTKFYSYSISYNAHPAQSYVRIGGEAPTPHTLPVGKEKQLFLIFPAGITYVDYGSTNVEVDKAEGVDNILAVKAVQPYKEDTNISVVLEGGKFYTFDLRYVPAPERFSFVIDKEDTQRVAILDEKERSYGQKERIREAVAKRTPLDLGLRDKNSGMEFEVGNIFIDGDVLLLRMTLTNRTQIGYTTDFMRFYIQDAKIRKKTAVQQLEQNILFTFDYPEEIPAHESRTFTVAMNKFTIPDKKRLIIEIQERNGGRHFLYKLKNKSLLTAEEVFRSRKQQETEDEADKILRRIAR | not soluble
MGSDKIHHHHHHKQLVHEGYRVTGCKRSAEELSALTEVGIEAYPLQLGSEAPSAPDAQALSGLFQTDYLVVNIPPRLKRGNAAYLEELQQLIALTQGWQYQQIVFISTTGVYPAKDKVMTEADALAESSDSQVLLDAEALFQVLPHACIVRFAGLVGPKRHPGRFLAGKTDVSGANVAVNLVHLSDCVSAVSRILAATGSGLSVAPIYNLCAPTHPTKAEFYQAAAESLGLVAPEFNQQSMPSKVIQGDAIVTDLGFRYQYASPQDMLAAC | not soluble
MGSDKIHHHHHHLCLIKPGLKVLEIGCGTGRVLKPLLESGASVVGVDISHEMLALAHNKLASFCDSGALRLLNHNFVYSSIPERFDRVFVTFYTFNYLLSYENALSFLKNIYSSMNDGAVLLMDMFFPSIYHNPAIEGKWQQRYLNLGAKQIRLSDRRTMRGPMEKREQVFEEDGGRQEITTLRRFYDKNETARLLREAGFSSVKFTDVYDSTLFHQLELLEATDRGFLVMGRREAGGGEG | not soluble
MGSDKIHHHHHHLDNSTSTATIDPPLRLGLAMWSQNQWQQTVYGNSQAHRLARYAEIFNTVEGNTTFYATPSLQNVQNWYAATHDEFKFTFKLPKHITHELQLQHAGPALQQFFSIMEPLINRTGVWKIQLPASFGPQSLPQLAQFLTQVPQGLTYGVEVRNSAFFAKGEAEQALNRLLIDNNCNRIIMDTRPVFAAAPTTAAVIDAHQKKPKVPVHAIATAHNPVVRFIGHPQAEANIHFFQNWLKQLPLWIAQNKQPYLFIHTPDNHNAPQLAVDLYRLLQQQLAQSTSALTDINLLPQQQHTTTQMGFDL | not soluble
MGSDKIHHHHHHLDVDTGKLQSLAASRYGARGARAVDDWLQLLRNDTSASEANQLARVNAFWNQRVLSGEDTHIWGRADYWATPLETLGKGAGDCEDYVIGKYFSLISLGVPTEKLRFIYVRARIGGPYSNQQIAHMVLGYYPTPNAVPLVLDSLISTIMPANERRDLTPVFSFNADGVYVDGKQASPVDRLSRWRDLLLRMEREGLRP | not soluble
MGSDKIHHHHHHLKAIKYGVTREHIREFKVALTDGKVYKFGSKSVKSSSGYSLNDLIIGSEGTLGVITEAVLRLYPRPKHALNAIIPFPTLDDAIESVPAILASGVEYMGRKVLNLWEKYYDATFPIKEGDGFIILGIDSFTASDAEAQLAQALEAVKPFHALKETVLNAESDEAKTIWDAREKLLLAIQKSTPKMDEVDVSVPINKIPLVLHRIEELEKEEDMRIPNFGHAGDGNLHIYLCSDDMTDEEFAKKGDNVISELYKTAKSVDGNMSGEHGVGYARQNYYEDFYGKDYTDLLRKVKGLFDPKGILNPDKIFPLD | not soluble
MGSDKIHHHHHHLLQAELGITSQRHFYSIGHLFPCGQLLERSRFNRRSKQLIWLVQFIRKAMSEMLPSDKLAIIDSFPLPLCQPVRNHRASIFKGLADIGYNASKHLWFYGFKVHMLVTLSGYILNYVVTPASVHDIKVVYELLEGCKQSVILGDLGYLSSELKKDLEQEGYHLWTPFRKNMTGAEEHNNWKVMAMRRTIETRFSELCRLFDIEHTLTRSLAGLQLRMEQIILAHNLRYFEMN | not soluble
